Reference: the DeepSol protein solubility set

assay: soluble on expression in E. coli; label from the status in PepcDB or PDB records

Sequence | soluble on expression in E. coli
MGSDKIHHHHHHAQKKVIIEDEEPNSVMFVSTNKAGDEIIRIMNETRLPRFHEPKAPRFVLTDRQGKFALGIGGYVRATAEYDFGGIVKDVDFYPALIPNKGSADRARNQFQMDISTSTLFLKLVGHTKRLGDFVVYTAANFRGDGKTFELQNAYATFLGFTLGYSYGNFMDLAALPPTIDFAGPNGSAFYRTTQLSYMCDKLKNWKFGVGVEMPSVDGTTNQYLTINTQRMPDFTASAQYNWNANSHLKLAAIVRSMTYSSSVDNKAHSKAGYGLQASTSFNVTPKWQVYGQVNYGKGIGQYLNDLSNLNVDIVPNPEKEGRMQTLPMLGWFAGLQYNISKNVFVSGTYSLSRLYSEHTYPSDEPDMYRKGQYLVANLFWNVTSNLQVGAEYLRGWRTDFSSNTRHANRMNALVQYSF | not soluble
MNLPGAAEPQGGNEIPEYTGVAWHYGQPLVEQRYFERSGGFVDRSHRGVLCISGEDAAVFLNNLVSQKLIDLPHPWAGEALDLDIQGHVVHHMEIIATDEVFYVHVPAAQLESLHTFFTRMIFWSKVTIEVIDAAVISVISAQHLDALVDVPLPEALAVSPVIDFSLPRRDILVPRASLMAVAASLQEHGFQPAGMMAYTAARVRSVQPVMSLDMDATTIPHEAASLIGRGDHIGAVHLNKGCYRGQETVGRVENLGRSPRVLVMVLIDGSAPEQPHPAAPLTAGGRTVGFLGTVVDDFELGPIGLAVVKRSALKSATLQAGDDVALSIDPDSLPHDDGEKAGRVAINKLRGL | not soluble
MKIGYLGPRGTFTEMAVQTLFDDKNVLKPYRTIPDCMDSVANGDMDAAVVPVENAIEGSVNVTLDYLIHKQRLEIVADIVVPISQHFLVHPNQRDNEIKKILSHPHAVAQCHEFLRSSYPGVEIEYMTSTAAAAQWVADHPNEPVAAIANEQAATSYQLDMLEKDIHDYDENRTRFAVLAKGKLSLPPYQVEPYTKKTTMMVTLSSDFSGALHQVLSAFAWRKLNLTKIESRPMKTGLGNYFFIIDVDCEADDVLIPGVMQELEALGCGVELLGSYPCFFHTSLKLTEASSV | not soluble
MQTWQLPEHIADVLPTNARQLESAREQLLALFRVHGYELVQPPLMEYAHSLLTHIDAGLSLKTILVTDRLSGRQLGIRADITPQVARIDAHLLSANQGINRLCYAGPVLHAQPDGLLNMREPLQAGAEMYGFADIRGDIELIDLMLKSMKIADMGKVLLSLGHIGIFRALSDAAHLDAGQSATLLALMQDKDTGAVEAQVKAWKLDGMWAKAFSLLPRLYGGREVLSDARGRLPDLSAVGGALGELQAVCDAFPDCEIHIDLSELRVDNYHTGLLYAAYAADFHDAVARGGRYDGLGGYFGRARPATGFSFDLRSFIGRLPAIERQPAVLVDAEDAEAAHEAVEALREQGQCVVIDYGIGHNVSEELAGRLKKTDGVWQVVKR | not soluble
KVTNRHFQDVPALEVVTTTHLDQPLPLVIFYHGWQSNKELVLTQARKLARKNLRVVLPDAMNHGERHQIVSQIPSFTFWNSIQGNLGEFELIVNYYRERKLILNEQIGVGGYSMGGMTTGALLTHHPEIKAATIIMGTPNLNAYAQLVRKHAQAHAYYIPSDLALLTSWLDHYDLNLQPETINHRPLLFWHGTEDERIPYSQSRNFFDRVHTAPYAEQVAFITGYQAKHLVKVPLMNKVANFFDYYLN | not soluble
MSILMPVRNEERFLPAALASLCRQSLTAWELIVVDDGSTDDTPELLRVAAARDRRVRVFNNAGAGLVDALNYGLAHCRAELVARMDGDDISHPQRLERQAAALDADPGLGLVATRFRHFPRHSVGLGMRAYEEWQNGLLTHEEIMRDRFVESPVVHPSVMARRQALTDAGGYRKTGWAEDYDLWLRLAAGGVRFTRLPEVLFFWRERPERATRTMGEYAADAFRACKIHHLCQGFLLGVDNVTLAGAGLEGRAWQRALAREGVRVGRWLDVDPRKQGRILHGAPVTAPDDVRAGAEKILVTVGTRGARDGVRAWARRAGLREGEDFVCVTLEHHHHHH | not soluble
MRGSHHHHHHGSPYNVMIVDDAAMMRLYIASFIKTLPDFKVVAQAANGQEALDKLAAQPNVDLILLDIEMPVMDGMEFLRHAKLKTRAKICMLSSVAVSGSPHAARARELGADGVVAKPSGTVSHDLEEKTGGELARTMRTLMAA | soluble
MIYAGILAGGTGTRMGISNLPKQFLELGDRPILIHTIEKFVLEPSIEKIVVGVHGDWVSHAEDLVDKYLPLYKERIIITKGGADRNTSIKNIIEAIDAYRPLTPEDIVVTHDSVRPFITLRMIQDNIQLAQNHDAVDTVVEAVDTIVESTNGQFITDIPNRAHLYQGQTPQTFRCKDFMDLYGSLSDEEKEILTDACKIFVIKGKDVALAKGEYSNLKITTVTDLKIAKSMIEKD | soluble
